From patent US20220220176

Tested on: thrombin-cleavable prodrug of human NK1
Sequence (chain, as listed by the source): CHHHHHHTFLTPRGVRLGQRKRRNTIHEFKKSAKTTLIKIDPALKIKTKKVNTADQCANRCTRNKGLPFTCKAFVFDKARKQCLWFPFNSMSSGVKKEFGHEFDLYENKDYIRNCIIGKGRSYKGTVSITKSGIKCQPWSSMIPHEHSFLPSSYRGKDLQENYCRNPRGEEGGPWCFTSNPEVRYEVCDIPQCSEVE

thrombin (Thrombin from human plasma; Sigma-Aldrich Co. LLC)
cleavage of the protease-sensitive peptide and release of human NK1 (SDS electrophoresis, CBB staining): The treatment of each prodrug of human NK1 with the corresponding protease (ADAM17 or thrombin) was found to cleave the protease-sensitive peptide contained in the prodrug of human NK1 so that the active form, human NK1, was released.
